# In paper PMC4994030 (Scientific Reports, 2016):
# Changes are numbered by the printed parent chain.
# B1: GH2-4 scFv (scFv, V domains shown)
# VH: EVQLVESGGGLVQPGGSLRLSCAASGFTINSGSIHWVRQAPGKGLEWVAFIGPFGGYTSYADSVKGRFTISADTSKNTAYLQMNSLRAEDTAVYYCARFGWNDYDFMDYWGQGTLVTVSS
# VL: DIQMTQSPSSLSASVGDRVTITCRASQDVFGGVAWYQQKPGKAPKLLIYSASFLYSGVPSRFSGSGSGTDFTLTISSLQPEDFATYYCQQYFDWPITFGQGTKVEIK
# notes: source: E. coli ER2738, secreted, in filtered culture supernatant
# B2: GH2-55 scFv (scFv, V domains shown)
# VH: EVQLVESGGGLVQPGGSLRLSCAASGFTIDGFSIHWVRQAPGKGLEWVAGIGPYGGYTSYADSVKGRFTISADTSKNTAYLQMNSLRAEDTAVYYCARFDIWHNFGMDYWGQGTLVTVSS
# VL: B1 VL with F30D, G32N, Y49S, S52G, F53S, Y91S, F92W, D93S, I96L
# notes: as for B1
# B3: GH2-12 scFv (scFv, V domains shown)
# VH: EVQLVESGGGLVQPGGSLRLSCAASGFTINDWGIHWVRQAPGKGLEWVAGIWPYWGYTSYADSVKGRFTISADTSKNTAYLQMNSLRAEDTAVYYCARYHVYFWWMDYWGQGTLVTVSS
# VL: B1 VL with F30S, G31N, G32N, S50G, A51P, F92Y, D93N, W94Y
# notes: as for B1
# B4: GH2-8 scFv (scFv, V domains shown)
# VH: GVQLVESGGGLVQPGGSLRLSCAASGFTIGSSGIHWVRQAPGKGLEWVAGIWPYWGSTYYADSVKGRFTISADTSKNTAYLQMNSLRAEDTAVYYCARFGVGYHYYMDYWGQGTLVTVSS
# VL: B1 VL with F30G, G31W, G32W, Y49S, S50G, S52T, F53G, Y91S, F92W, W94S
# notes: as for B1
# B5: GH2-42 scFv (scFv, V domains shown)
# VH: EVQLVESGGGLVQPGGSLRLSCAASGFTISNWGIHWVRQAPGKGLEWVAGIGPYGGYTSYADSVKGRFTISADTSKNTAYLQMNSLRAEDTAVYYCARFGFYFDGIMDYWGQGTLVTVSS
# VL: DIQMTQSPSSLSASVGDRVTITCRASQDVSSGVAWYQQKPGKAPKLLISGPTGLYSGVPSRFSGSGSGTDFTLTISSLQPEDFATYYCQQYYDWPLTFGQGTKVKRG
# notes: also called scFv(GH2-42); source: E. coli ER2738, secreted, in filtered culture supernatant
# B6: GH2-102 scFv (scFv, V domains shown)
# VH: B5 VH with S30N, N31G, W32G, G50S, E89G, F101H, Y102H, F103Y, I106H
# VL: B1 VL with F30G, G31S, G32N, S50G, S52P, F53Y, F92Y, D93N, I96L
# notes: as for B1
# B7: GH2-40 scFv (scFv, V domains shown)
# VH: B5 VH with S30N, N31S, G50W, G55W, Y57F, G100D, F101G, Y102H, I106V
# VL: B1 VL with F30N, G31N, Y49S, S50G, A51T, S52P, F53W, I96L
# notes: as for B1
# B8: GH2-61 scFv (scFv, V domains shown)
# VH: B5 VH with S30N, G52W, S59Y, G100Y, F101N, Y102H, F103H, D104G, I106V
# VL: B1 VL with F30G, G31S, G32N, Y49S, S50W, A51S, S52T, F53S, F92G, D93G
# notes: also called scFv(GH2-61); source: E. coli ER2738, secreted, in filtered culture supernatant
# B9: GH2-92 scFv (scFv, V domains shown)
# VH: B5 VH with S30G, G50S, Y54F, G55W, S59F, F101N, Y102H, F103Y
# VL: DIQMTQSPSSLSASVGDRVTITCRASQDVNDGVAWYQQKPGKAPKLLIFGSPYLFSGVPSRFSGSGSGTDFTLTISSLQPEDFATYYCQQYFSWPITFGQGTQVGIK
# notes: as for B1
# B10: GH2-24 scFv (scFv, V domains shown)
# VH: B1 VH with N30D, S31N, F54S, S59F, N102H, D103N, Y104V, F106N
# VL: B1 VL with F30G, G31W, Y49S, A51T, S52R, F53S, F92Y, D93N, I96L
# notes: as for B1
# B11: GH2-26 scFv (scFv, V domains shown)
# VH: B5 VH with N31D, W32Y, G50F, G55W, S59Y, G100Y, Y102F, F103G, I106L
# VL: B1 VL with F30S, G31S, S50G, A51T, F53S, D93N
# notes: as for B1
# B12: GH2-62 scFv (scFv, V domains shown)
# VH: B5 VH with S30N, G52W, Y54F, S59Y, G100D, F101Y, Y102L, F103N, D104N, I106G
# VL: B1 VL with F30G, G32Y, Y49F, S50G, F53G, Y91F, F92Y, D93S, W94S, I96L
# notes: as for B1
# B13: GH2-107 scFv (scFv, V domains shown)
# VH: B2 VH with D30S, G31N, S33G, G50Y, T91A, D100H, W102H, H103N, N104L, F105W
# VL: B1 VL with F30S, G31D, Y49S, S50G, S52G, F53Y, Y91F, F92Y, D93S
# notes: as for B1
# B14: GH2-31 scFv (scFv, V domains shown)
# VH: B5 VH with S30N, W32F, G50S, Y54F, G55W, F101N, Y102D, F103Y, I106V
# VL: B1 VL with F30S, G31W, A51P, S52P, F53W, F92Y, D93N
# notes: as for B1
# B15: GH2-75 scFv (scFv, V domains shown)
# VH: B2 VH with F27S, D30G, G31N, F32S, S33G, G50Y, I101D, W102Y, N104W, F105D
# VL: DIQMTQSPSSLSASVGDRVIITCRASQDVSGYVAWYQQKPGKAPKLLIYSSGVPSRFSGSGSGTDFTLTISSLQPEDFATYYCQQYYNWPVTFGQGTKVEIK
# notes: also called scFv(GH2-75); source: E. coli ER2738, secreted, in filtered culture supernatant
# B16: GH2-101 scFv (scFv, V domains shown)
# VH: B5 VH with S30N, N31S, W32Y, G50S, G55W, G100Y, F101I, Y102W, I106L
# VL: B5 VL with T5A, S31N, S49Y, P51T, G53S, D93S, K105E, R106I, G107K
# notes: as for B1
# B17: GH2-38 scFv (scFv, V domains shown)
# VH: B5 VH with N31D, W32G, F101D, Y102N, D104I, I106V
# VL: B1 VL with S50G, A51P, F53Y, F92S, D93S
# notes: as for B1
# B18: GH2-11 scFv (scFv, V domains shown)
# VH: B2 VH with D30N, G31D, F32W, S33G, K65R, D100V, I101N, H103D, N104F, F105Y
# VL: B1 VL with F30G, G31D, S52G, F53W, F92Y, D93S, W94Y
# notes: as for B1
# B19: GH2-72 scFv (scFv, V domains shown)
# VH: EVQLVESGGGLVQPGGSLRLSCAASGFTISNGGIHWVRQAPGKGLEWVAYIWPSGGYTFYADSVKGRFTISADTSKNTAYLQMNSLRAEDTAVYYCARFFNNDWIGMDYWGQGTLVTVSS
# VL: B5 VL with S30G, S31Y, G32F, P51T, G53W, Y92S, D93N, K105E, R106I, G107K
# notes: as for B1
# B20: GH2-103 scFv (scFv, V domains shown)
# VH: B5 VH with S30D, N31E, W32Y, G50F, G55W, F101H, Y102L, F103H, I106L
# VL: B1 VL with G31S, Y49S, S50G, A51T, S52P, F92Y, D93N
# notes: as for B1
# Target: T1, HER2-ECD (human epidermal growth factor receptor 2, extracellular domain) (Homo sapiens, UniProt P04626)
# T1 construct: also called HER-ECD
# Assay: ELISA
# Conditions: one partner purified
row,Binder,binding result
1,B1,binds
2,B2,binds
3,B3,binds
4,B4,binds
5,B5,binds
6,B6,binds
7,B7,binds
8,B8,binds
9,B9,binds
10,B10,binds
11,B11,binds
12,B12,binds
13,B13,binds
14,B14,binds
15,B15,binds
16,B16,binds
17,B17,binds
18,B18,binds
19,B19,binds
20,B20,binds
